One experiment concerns the target T1, activated factor XII.
T1 chain 1: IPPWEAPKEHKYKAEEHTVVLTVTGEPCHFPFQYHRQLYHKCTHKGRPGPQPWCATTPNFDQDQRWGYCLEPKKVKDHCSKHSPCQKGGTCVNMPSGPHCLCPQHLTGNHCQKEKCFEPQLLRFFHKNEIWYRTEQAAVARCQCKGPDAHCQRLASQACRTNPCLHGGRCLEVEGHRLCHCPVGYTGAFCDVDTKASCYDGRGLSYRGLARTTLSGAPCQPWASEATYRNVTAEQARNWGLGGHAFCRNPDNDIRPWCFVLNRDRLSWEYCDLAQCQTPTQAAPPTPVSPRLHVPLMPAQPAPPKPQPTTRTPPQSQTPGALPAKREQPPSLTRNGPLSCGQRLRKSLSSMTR
T1 chain 2: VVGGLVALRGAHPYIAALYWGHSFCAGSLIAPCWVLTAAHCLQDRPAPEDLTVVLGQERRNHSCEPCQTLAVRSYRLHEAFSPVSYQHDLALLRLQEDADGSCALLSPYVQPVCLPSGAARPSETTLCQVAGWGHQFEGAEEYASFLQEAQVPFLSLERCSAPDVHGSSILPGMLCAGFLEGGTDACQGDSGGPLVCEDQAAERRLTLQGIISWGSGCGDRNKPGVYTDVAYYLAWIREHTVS
Put plainly: SPR. A general note: SPR reads the build-up and loss of mass on a sensor chip optically.

The target in a further experiment is kallikrein. Put plainly: SPR.

The text below walks through data of PMC7308506 (2020).

B1: LCTX-F2 (peptide)
chain: GAKACTPRLHDCSHDRHSCCRGELFKDVCYCFYPEGEDKTEVCSCQQPKSHKYIEKVVDKTKTLVG
As usually defined, the Kd is the free concentration of one partner at which half of the binding sites on the other are occupied at equilibrium, for simple one-to-one binding. Read a low Kd as tighter binding. As for B1, the figures for the Kd with activated factor XII and in the experiment with kallikrein were 7.2 nM and 4.6 nM, respectively.
